Source: paper PMC9170038, “Crowdsourced RNA design discovers diverse, reversible, efficient, self-contained molecular switches”

Key:
Conditions in all cases: chain copies: 2; label: tethered by stalled RNA polymerase
[1] = molecular target: T1, MS2 coat protein, dlFG mutant (Escherichia phage MS2, UniProt P03612, del68-81insG); assay: 4 mM Mg2+; no ligand; RNA-MaP array; 100 mM Tris-HCl pH 7.5, 80 mM KCl, 4 mM MgCl2, 0.1 mg/mL BSA, 1 mM DTT, 0.01 mg/mL yeast tRNA, 0.01% Tween-20; protein 1.5 nM to 3 uM; 37 C (Table S3)
[2] = molecular target: T1, MS2 coat protein, dlFG mutant; assay: 4 mM Mg2+; FMN 200 uM; RNA-MaP array; 100 mM Tris-HCl pH 7.5, 80 mM KCl, 4 mM MgCl2, 0.1 mg/mL BSA, 1 mM DTT, 0.01 mg/mL yeast tRNA, 0.01% Tween-20; protein 1.5 nM to 3 uM; 37 C (Table S3)
[3] = molecular target: T1, MS2 coat protein, dlFG mutant; assay: 4 mM Mg2+; theophylline 2 mM; RNA-MaP array; 100 mM Tris-HCl pH 7.5, 80 mM KCl, 4 mM MgCl2, 0.1 mg/mL BSA, 1 mM DTT, 0.01 mg/mL yeast tRNA, 0.01% Tween-20; protein 1.5 nM to 3 uM; 37 C (Table S3)
[4] = molecular target: T1, MS2 coat protein, dlFG mutant; assay: 4 mM Mg2+; L-tryptophan 2.4 mM; RNA-MaP array; 100 mM Tris-HCl pH 7.5, 80 mM KCl, 4 mM MgCl2, 0.1 mg/mL BSA, 1 mM DTT, 0.01 mg/mL yeast tRNA, 0.01% Tween-20; protein 1.5 nM to 3 uM; 37 C (Table S3)
[5] = molecular target: T1, MS2 coat protein, dlFG mutant; assay: 4 mM Mg2+; miR-208a RNA 100 nM (AU…UUGU); RNA-MaP array; 100 mM Tris-HCl pH 7.5, 80 mM KCl, 4 mM MgCl2, 0.1 mg/mL BSA, 1 mM DTT, 0.01 mg/mL yeast tRNA, 0.01% Tween-20; protein 1.5 nM to 3 uM; 37 C (Table S3)

B1: Eterna 5921244 (Exclusion NG 2) (ssRNA)
RNA: AUUAUAUAGGAAGGAUAUAGAAUAUUAUUUUAACAUGAGGAUCACCCAUGUAACCUUAUGUGUAGCUAGAAGGUCCAUUUGUUA
Kd [1]: 224 nM

B2: Eterna 6120996 (Same State NG 1) (ssRNA)
RNA: GGUCCAGCAUGAGGAUAUGGCACCUUAUUGGUGCCAGAAGGCAUGUCUAUAGACAUGAGGAUCACCCAUGUAAUAAAUUGGACC
Kd [1]: 646 nM

B3: Eterna 6444365 (Inverted Same State NG 3) (ssRNA)
RNA: AGAUUUGUACAUGAGGAUCACCCAUGUUAAUAGGUGGUUGUCAGAAGGCAUUAUUAGAGUUUUAAUGAGGAUAUGAAUUUACAA
Kd [1]: 974 nM

B4: Eterna 5956610 (Same State NG 2) (ssRNA)
RNA: UGGCUGAGUCGAGGAUAUGAUCUUCAUAUAAUAACAUGAGGAUCACCCAUGUAUAAUUACAUGGAUCAGAAGGCGACUCAGCCA
Kd [1]: 662 nM

B5: Eterna 6395988 (Inverted Same State NG 2) (ssRNA)
RNA: GUCUGAUUGUAGAAGGUACUUAAUACUCAUGUAACAUGAGGAUCACCCAUGUAUCAACAAUAUUGUAAGGAUAUACAAAUCUCA
Kd [1]: 576 nM

B6: Eterna 5997882 (Exclusion 5) (ssRNA)
RNA: CAGCCCUGAGGAUAUCCCUACUUGUACAUGAGGAUCACCCAUGUCCUCCUCCGGGCUUCGGGAGAAGGCAGGUCUC
Kd [2]: 18.5 nM

B7: Eterna 7618834 (Exclusion - Theophylline A) (ssRNA)
RNA: AGACAUGAGGAUCACCCAUGUAGUAUGGAUACCAGAUCCAGAUUUAUCCCUUGGCAGCUGUGGUACAGCGUUGGAUCGCUCCUAG
Kd [3]: 29.4 nM

B8: Eterna 7687214 (Same State - Theophylline B) (ssRNA)
RNA: UCGUGUAUAUCGGAUACCAGUGAAAACGAUACAUGAGGAUCACCCAUGUGAGUUGAUGUACACCCUUGGCAGCUGUAUAUAUCUA
Kd [3]: 15.1 nM

B9: Eterna 7636321 (Exclusion - Theophylline B) (ssRNA)
RNA: CAUUAUGUAACUGAUACCAGUGUACUGACAUGAGGAUCACCCAUGUUGGGUUUUGUUGUACACCCUUGGCAGCAGAAUCAUAAUG
Kd [3]: 90.9 nM

B10: Eterna 7639661 (Exclusion - Theophylline B) (ssRNA)
RNA: AUUUAUAGUUGUGAUACCAGACUUACAUGAGGAUCACCCAUGUUACUUAAAUGUUUUGAUGUCCCUUGGCAGCACUGUUUUUUUA
Kd [3]: 14 nM

B11: Eterna 7629678 (Same State - Theophylline A) (ssRNA)
RNA: UUCUACAUGAGGAUCACCCAUGUAAACGAUACCAGACGAGUAUUAGUCCCUUGGCAGCGUAGAGUGUCGUUUAUAGUAGGAUACC
Kd [3]: 28.4 nM

B12: Eterna 7733059 (Exclusion - Tryptophan B) (ssRNA)
RNA: GGAGUCGGCACGGCCGCCACUGCGGUGGUGUGACAUGAGGAUCACCCAUGUUGUCAUGCGGCCCUUAGGACCGGGUGGCGGUUCC
Kd [4]: 57 nM

UUUAAUGAGGGAACUGCUUAGUUU (ssRNA) [Eterna 5 (OligoOldBControl)]
Kd [1]: > 3000 nM

B13: Eterna 10232 (Sensor for hsa-mir-208a) (ssRNA)
RNA: AACCAACAAAUAAAACAAGCGUGCUCGUCACAUGAGGAUCACCCAUGUUUAAGCGCUAUUCCUACUUCCUCAGCGCC
Kd [5]: 30.4 nM

B14: Eterna 10111 (Sensor for hsa-mir-208a version 2) (ssRNA)
RNA: AAUUAUUAACAUGAGGAUCACCCAUGUAAAACAUGGAUUAACAAGCCUUUUCGUUUUUGCUCGUCUUAUAUUAUUAA
Kd [5]: 135 nM

B15: Eterna 15995 (Sensor v3, turn-off variant 1) (ssRNA)
RNA: UAUUAGCAAGCAAGGUCCCACAUGAGGAUCACCCAUGUGCUCGUCUUAUAAGGUACUGUGACGAAAGUCACGGUACC
Kd [5]: 426 nM

B16: Eterna 7755473 (Exclusion - Arginine A) (ssRNA)
RNA: UCCUUUGUUGCCAGUGAUGUUGGACAGGAAGGAGCGGGCAUAAGCCCAGGUAGGUCGCCUGUCAACUUUCUUAUAGCCCGAAGGU
Kd [1]: > 3000 nM

B17: Eterna 7740407 (Exclusion - Tryptophan A) (ssRNA)
RNA: AAGCAGUCACUCGAAACCAUCGAAGAUGGACGAGGACCGGUACGGCCGCCACUCGGAGUGAUGUUCCGAAGACUGCAAAAUAAAA
Kd [1]: > 3000 nM

B18: Eterna 7690517 (Same State - Theophylline B) (ssRNA)
RNA: AAUUUAUUAUCUGAUACCAGACUUUUUCUUGUUUAUAAGUCAAGUGAUGUUUGACUUUUAGUCCCUUGGCAGCAGUAUUUUUUAA
Kd [1]: > 3000 nM

B19: Eterna 7745661 (Exclusion - FMN B) (ssRNA)
RNA: AGACUACUGAUAGGAUAUAACAUCCUAGUCGUAUACCGAAAGGUAUACGAUUCCCUUCUAGUGAUGUUAGAAGGGUCGGUAGUCA
Kd [1]: > 3000 nM

B20: Eterna 1200 (Exclusion - Tryptophan A) (ssRNA)
RNA: UGGAGUGCCUGGUCGUCACUAUGCCAACCACGAGGACCGGUACGGCCGCCACUCGUGAGGGAUAUUCAGAAAGUGAUGUUUUUUG
Kd [1]: > 3000 nM

UUUGUUGCCAGUGAUGUUGGCAACUUU (ssRNA) [Eterna 11 (K4-alt7bp_control)]
Kd [1]: > 3000 nM

B21: Eterna 7678744 (Same State - Tryptophan A) (ssRNA)
RNA: ACAGGAUCGAAAGAUCCUGAGCAGUCAAAACGAGGACCGGUACGGCCGCCACUCGAAUAAGAGAGUGAUGUUCUCGACUGCAAAA
Kd [1]: > 3000 nM
